# In publication PMC7337384:
# Target: RaTG13 S-protein receptor-binding domain fused to the Fc domain of human IgG1 (bat coronavirus RaTG13)
# Experiment: SPR
substance,measurement,value
soluble monomeric human ACE2-NN (enzymatically inactive human ACE2 lacking its active-site histidines) (domain or fragment),Kd,> 35 µM
